Results published in patent publication US20240376183A1.

Assays:
Assay in all cases: cell-based or functional assay
[1] = target: HIV-1 Env of pseudovirus strain 6545.v4.c1 (HIV-1)
[2] = target: HIV-1 Env protein of virus strain 89-F1_2_25 (HIV-1)
[3] = target: HIV-1 YU2 Env, wild type (YU2 pseudovirus) (HIV-1) (UniProt P35961)
HIV-1 YU2 Env, wild type (YU2 pseudovirus) (HIV-1), sequence (P35961 32-843 limits assumed): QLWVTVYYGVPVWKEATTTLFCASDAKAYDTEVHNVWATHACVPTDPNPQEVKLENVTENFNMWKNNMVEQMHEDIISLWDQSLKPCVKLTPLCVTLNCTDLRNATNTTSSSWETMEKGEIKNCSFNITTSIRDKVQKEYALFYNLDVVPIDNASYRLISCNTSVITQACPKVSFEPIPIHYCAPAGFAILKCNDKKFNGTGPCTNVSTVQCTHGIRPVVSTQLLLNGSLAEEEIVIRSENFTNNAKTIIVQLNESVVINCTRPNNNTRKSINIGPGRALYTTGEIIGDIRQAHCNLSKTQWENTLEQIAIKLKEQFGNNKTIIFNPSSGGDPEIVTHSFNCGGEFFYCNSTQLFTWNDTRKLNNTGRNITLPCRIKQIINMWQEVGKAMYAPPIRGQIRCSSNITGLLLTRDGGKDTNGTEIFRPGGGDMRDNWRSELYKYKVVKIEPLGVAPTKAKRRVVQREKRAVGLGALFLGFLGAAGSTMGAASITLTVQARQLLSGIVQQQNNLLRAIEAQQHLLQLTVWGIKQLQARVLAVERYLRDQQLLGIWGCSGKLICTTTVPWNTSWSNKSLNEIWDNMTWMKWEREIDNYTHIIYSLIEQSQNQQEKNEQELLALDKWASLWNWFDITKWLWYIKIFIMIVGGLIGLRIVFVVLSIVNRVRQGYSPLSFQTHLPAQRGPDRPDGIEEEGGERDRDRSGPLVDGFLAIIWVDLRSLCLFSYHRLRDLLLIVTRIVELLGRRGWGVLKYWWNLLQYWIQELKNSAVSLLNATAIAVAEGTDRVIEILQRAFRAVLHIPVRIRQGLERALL

Row | Substance | IC50, TZM-bl pseudovirus neutralization assay [1] [µg/mL] | IC50, TZM-bl pseudovirus neutralization assay [2] [µg/mL] | IC50, TZM-bl cell neutralization assay [3] [µg/mL]
1 | 3BNC117 (antibody) | > 20 | > 20 | –
2 | 8ANC131 (antibody) | – | – | 0.256
3 | N6 (antibody) | 16.2 | > 20 | –
4 | VRC01 (antibody) | > 20 | > 20 | 0.107
5 | VRC07-523-LS (antibody) | > 20 | – | –
